Reference: article doi:10.1101/763847

Target: single-bond CDH23 fusion protein (EC1-5/EC3-5 Fc heterodimer with one EC1-2 binding domain) (mouse)
Experiment: single-molecule dynamic force spectroscopy

Substance “single-bond PCDH15 fusion protein (EC1-5/EC3-5 Fc heterodimer with one EC1-2 binding domain) (Fc fusion)” has a force sensitivity fβ (force that accelerates the off-rate e-fold) of 14.3 pN, a koff of 0.62 s⁻¹ and a mean lifetime (1/koff) at zero force of 1.6 s. It also gave a mean zero-force lifetime in 50 uM Ca2+ of 0.87 s and a single-bond lifetime at a resting tension of 10 pN (calculated from the fit) of 1 s.
